Changes are numbered by the printed parent chain. Several values for one entry are separate records, joined by “and”; a condition that tells them apart may be missing. Equal values may be shown once.
T1: HA-GCN4 hAPRIL (amino acid residues 105-250) (human, UniProt O75888 105-250)
T1 construct: Bought (R&D Systems); also called HA-tagged GCN4 human APRIL; HA-GCN4-huAPRIL; not shown: N-terminal HA tag; GCN4 isoleucine zipper oligomerization domain
T1 sequence: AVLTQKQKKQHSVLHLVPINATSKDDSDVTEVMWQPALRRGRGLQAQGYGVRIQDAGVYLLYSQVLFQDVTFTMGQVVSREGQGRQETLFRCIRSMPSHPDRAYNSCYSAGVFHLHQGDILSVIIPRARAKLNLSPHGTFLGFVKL

T2: HA-GCN4 mAPRIL (amino acid residues 96-241) (mouse, UniProt Q9D777 96-241, Assembles as a homotrimer through the GCN4 zipper; one protomer is given.)
T2 construct: Bought (R&D Systems); also called HA-tagged mouse APRIL (R&D Systems); recombinant mouse APRIL; not shown: N-terminal HA tag and GCN4 isoleucine-zipper trimerisation domain, with any linker, of the bought R&D Systems protein
T2 sequence: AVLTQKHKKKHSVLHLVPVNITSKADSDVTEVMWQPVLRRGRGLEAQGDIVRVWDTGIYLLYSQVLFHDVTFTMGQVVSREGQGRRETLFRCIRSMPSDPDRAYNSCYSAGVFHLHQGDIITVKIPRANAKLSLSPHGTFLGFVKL

B1: monoclonal antibody 3530 (antibody, mouse IgG2, V domains shown)
VH: QVQLQQSGAELVRPGASVKLSCKASGYTFTDHEMHWVRQTPVHGLEWIGVIDPDTGDTTYNQKFKGKATLTADKSSSTAYMDLRSLTSEDSAVFYCTRWTGGDYWGHGTTLTVSS
VL: DAVMTQTPLSLSVTIGQPASISCKSSQSLLYSDGKTYLNWFQQRPGQSPKRLMYQVSKLDPGIPDRFSGSGSETDFTLKISRVEAEDLGVYYCLQGTYYPYTFGSGTKLEIK
B2: monoclonal antibody 4540 (antibody, V domains shown)
VH: QVQLQQSGPELVKPGASVKISCKASGYTFADYYINWVKQRPGQGLEWIGWIFPGSGSTYYNEKFKGKATLTVDKSSSTAYMLLSSLTSEDSAVYFCARGDSGRAMDYWGQGTSVTVSS
VL: DIQMTQSPSSLSASLGGKVTITCKASQDINKYIAWYQHKPGKGPRLLIHYTSTLQSGIPSRFSGSGSGRDYSFSISNLEPEDNATYYCLQYDNLLTFGAGTKLELK
notes: mouse-derived
B3: monoclonal antibody 3833 (antibody, V domains shown)
VH: QVQLQQSGAELVRPGTSVKMSCKAAGYTFTNYWIGWVKQRPGHGLEWIGDIYPGGIGGGYTKYNEKFKGKATLTADTSSSTAYMQLGSLTSEDSAIYFCSRSETGRAMDYWGQGTSVTVSS
VL: B2 VL with Q55K, S56P, N77D, N83I, L95N, A99G, L105I
notes: mouse-derived
B4: 4237 (antibody, V domains shown)
VH: QAHLKESGPGLVAPSQSLSITCTVSGFSLTDYDVHWVRQSPGKGLEWLGVIWNDGSTDYNTAFISRLTISKDNSKSQVFFKMNSLQADDTAIYYCARNWYGGYWFAYWGQGTLVTVSA
VL: DIQMTQSPASLSASAGETVTITCRSSENIYSYLAWYQQKQGKSPQLLVYNANALAEGVPSRFSGSGSVTQFSLKINSLQPEDFGSYYCQHHYGTPFTFGSGTKLEIK
notes: also called monoclonal antibody 4237
B5: monoclonal antibody 2218 (antibody, mouse IgG2, V domains shown)
VH: DVQLQESGPGLVKPSQSLSLTCSVTGYSITSGYYWNWIRQFPGNKLEWMGYISYDGYNNYNPSLKNRISITRDTSKNQFFLKLNSVTTEDTATYYCANYYDYEDWYFGVWGTGTTVTVSS
VL: DIVLTQSPASLAMSLGKRATISCRASESVSIIGTNSIHWYQQKPGQPPKLLIYHASNLETGVPARFSGSGSRTDFTLTIDPVEEDDVAIYYCLQSRKIPYTFGGGTKLEIK
B6: monoclonal antibody 3631 (antibody, V domains shown)
VH: EIQLQQSGPELVKPGASVKVSCKASGYSFTDYNIYWVKQSHGKSLEWIGYIDPSNGGPGYNQKFRGKATLTVDKSSSTAFLHLNSLTSEDSAVYYCARRDNYGSGTMDYWGQGTSVTVSS
VL: DIVMTQSQKFMSTSVGDRVSITCKASQNVGTDVSWYQQKPGKSPKPLIYWASNRFTGVPDRFIGSGSGTDFTLTISNVQSEDLADYFCEQYSIYPLTFGAGTKLELK
notes: mouse-derived
B7: monoclonal antibody 3732 (antibody, V domains shown)
VH: B6 VH with Y32D, I34M, S54L, P58T, R65K, G103A, S104T
VL: B6 VL with Q27K, I63T, S76N, I93S
notes: mouse-derived

How the values were obtained:
[1] = target: T1, HA-GCN4 hAPRIL (amino acid residues …); assay: indirect ELISA on HA-GCN4 human APRIL, 3-parameter fit
Protocol: FIG. 5 depicts the binding of anti-APRIL antibodies to human APRIL. Relative binding of select anti-APRIL antibodies was measured by indirect ELISA. Select antibodies based on prior hybridoma screening were recombinantly produced (based on immunoglubin VH and VL gene sequencing) as described. HA-tagged GCN4 human APRIL R&D Systems was used as source of APRIL. Binding data was analyzed by non-linear regression using a three parameter fit.
(§1) Purified antibodies were further characterized for APRIL binding, APRIL species cross reactivity (human APRIL vs. mouse APRIL), and receptor blocking activity using TACI-Fc. For binding, an APRIL-based indirect ELISA was used to determine by first approximation the relative affinity of purified anti-APRIL antibodies to either human APRIL or mouse APRIL. ELISA method was as generally described above. […] Blocking and wash steps were completed as described. Binding of anti-APRIL antibodies to APRIL was quantified using an 8 point dilution of test antibody that spanned over a four log scale. Antibody binding to APRIL was detected using a rabbit anti-mouse IgG (H+L)-HRP conjugate (Jackson ImmunoResearch Laboratories). Antibody binding data was analyzed by non-linear regression analysis using a 3 parameter fit to determine max binding and apparent EC₅₀ values. […] Mouse specific antibody Apry-1-1 (Adipogen) was likewise used for quantification of antibody binding to mouse APRIL.

[2] = target: T2, HA-GCN4 mAPRIL (amino acid residues …); assay: blocking ELISA; blocked: mouse APRIL binding to BCMA
[3] = target: T1, HA-GCN4 hAPRIL (amino acid residues …); assay: blocking ELISA; blocked: human APRIL binding to human BCMA-Fc; set-up: concentration or dose not given beside the values
Protocol: (§2) Recombinant TACI-Fc or BCMA-Fc was coated on 96 well plates in 0.1 M carbonate-bicarbonate buffer (pH 9.6), overnight at 4° C. Plates were washed three times with 1×PBST (PBS+0.025% Tween 20) followed by blocking with 1% BSA in 1×PBS, 37° C. for 1 hour. All subsequent wash steps were carried out with 1×PBST. To assess antibody blocking, either 15 ng/mL or 50 ng/mL HA-GCN4-huAPRIL was preincubated with varying antibody concentrations ranging from 0.03-30 μg/mL in binding buffer comprised of 1% BSA and 0.025% Tween-20 in 1×PBS. Preincubation was carried out at 30° C. for 1 hour with mixing. Antibody-APRIL premix with 50 ng/mL APRIL or 15 ng/mL APRIL was then added to TACI-Fc coated or BCMA-Fc coated plates, respectively, and incubated for an additional hour at 30° C. HA-tagged APRIL binding to either receptor was quantified using a goat polyclonal anti-HA tag-HRP antibody (Abcam) added at a 1:10000 dilution followed by colorimetric development using 100 μl/well of freshly prepared TMB substrate (KPL) carried out for up to 30 minutes at room temperature before quenching enzymatic reaction by the addition of 1N sulfuric acid. ELISA signal was quantified by absorbance at 450 nm. ELISA data was analyzed by non-linear regression. IC₅₀ values were calculated based on a 4 parameter fit of antibody titration curves. […] Non-blocking antibodies Aprly-1 or Aprly-5 (Enzo Biosciences) were used as negative controls. Mouse specific, blocking antibody aprily-1-1 (Adipogen) was generally used as a positive control in experiments using mouse APRIL (HA-GCN4-mAPRIL).

[4] = target: T1, HA-GCN4 hAPRIL (amino acid residues …); assay: as above; set-up: concentration or dose not given beside the values; remark: listed apart in the source
Protocol: (§3) FIGS. 19A-19B depict the antibody inhibition of APRIL binding to TNFSF receptors TACI (FIG. 19A) and BCMA (FIG. 19B). Assay is based on blocking ELISA using recombinant human APRIL (R&D Systems) and Human TACI-Fc. Inhibition was analyzed by non-linear regression using a four parameter fit.
as §2

[5] = target: T1, HA-GCN4 hAPRIL (amino acid residues …); assay: blocking ELISA; blocked: human APRIL binding to human TACI-Fc; set-up: concentration or dose not given beside the values
Protocol: as §3, §2

[6] = target: T1, HA-GCN4 hAPRIL (amino acid residues …); assay: blocking ELISA, 4-parameter fit; blocked: human APRIL binding to human BCMA-Fc
Protocol: as §2

[7] = target: T1, HA-GCN4 hAPRIL (amino acid residues …); assay: blocking ELISA, 4-parameter fit; blocked: human APRIL binding to human TACI-Fc
Protocol: as §2

[8] = target: T1, HA-GCN4 hAPRIL (amino acid residues …); assay: as above; remark: listed apart in the source
Protocol: as §3, §2

[9] = target: T1, HA-GCN4 hAPRIL (amino acid residues …); assay: indirect ELISA on human APRIL; column head prints IC50 (pM), legend paragraph 725 calls the values EC50
Text: as §1

Row | Binder | EC50 [1] | IC50 (read off the curve) [2] | % Inhibition [3] | % Inhibition [4] | % Inhibition [5] | IC50 [6] | IC50 [7] | IC50 [8] | EC50 [9] | binding result [2]
1 | B1 | 0.058 µg/mL and 0.392 nM | ~0.3 µg/mL | 35% | 37% | 89% | 0.68 nM | 4.95 nM | 2.9 nM | 0.0489 nM | –
2 | B2 | – | ~0.3 µg/mL | – | 98% | 65% | – | – | 1.01 nM | 0.0129 nM | –
3 | B3 | – | ~0.06 µg/mL | – | 96% | 72% | – | – | 2.25 nM | 0.0175 nM | –
4 | B4 | – | – | – | 93% | 95% | – | – | 0.9 nM | 0.0126 nM | –
5 | B5 | 0.0126 µg/mL and 0.085 nM | – | 100% | 99% | 40% | 0.22 nM | 0.74 nM | 0.98 nM | 0.005 nM | –
6 | B6 | – | – | – | 100% | 63% | – | – | 0.27 nM | 0.0166 nM | binds
7 | B7 | – | – | – | 100% | – | – | – | – | 0.0072 nM | binds
